We go through seven substances from patent US7109170B2, “Region of factor IXa protease domain that interacts with factor VIIIa and methods therefor” (Saint Louis University, priority 1999, dated 2006).

For assay [1], the target named is mouse monoclonal antibody (mAb) that inhibits the interaction of factor IXa with factor VIIIa. Nature of the assay: binding of IX proteins to mAb that interferes with IXa:VIIIa interaction (coagulant based / competition assay).
From the text: The ability of the IX mutant proteins to bind to a mAb (Bajaj et al., 1985, supra) which interferes with the interaction of IXa and VIIIa was studied using a coagulant based assay as described in Usharani et al., 1985, J. Clin. Invest.
The target in a further assay is T1, factor XIa/Ca2+ (Homo sapiens, UniProt P03951).
T1 construct: purchased Enzyme Research Laboratories (South Bend, Ind.)
T1 sequence (P03951 388-625 limits assumed): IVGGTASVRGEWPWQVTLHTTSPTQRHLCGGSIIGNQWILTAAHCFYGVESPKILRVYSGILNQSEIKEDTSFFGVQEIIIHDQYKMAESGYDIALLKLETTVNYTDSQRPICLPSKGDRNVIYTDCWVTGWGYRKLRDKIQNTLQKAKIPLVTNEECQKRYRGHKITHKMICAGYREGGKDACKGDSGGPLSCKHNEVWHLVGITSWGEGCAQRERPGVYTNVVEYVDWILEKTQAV
T1 sequence (P03951 19-387 limits assumed): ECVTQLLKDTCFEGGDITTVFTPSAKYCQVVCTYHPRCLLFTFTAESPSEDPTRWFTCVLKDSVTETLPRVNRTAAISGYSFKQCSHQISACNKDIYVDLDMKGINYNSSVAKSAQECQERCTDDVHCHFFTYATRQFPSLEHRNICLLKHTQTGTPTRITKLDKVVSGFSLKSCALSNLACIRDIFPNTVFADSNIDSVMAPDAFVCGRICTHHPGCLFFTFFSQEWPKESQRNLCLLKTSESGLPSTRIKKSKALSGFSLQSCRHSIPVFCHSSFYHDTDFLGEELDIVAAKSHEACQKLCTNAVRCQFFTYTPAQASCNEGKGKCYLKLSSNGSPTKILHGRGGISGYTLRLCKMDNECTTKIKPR
In words: activation of factor IX mutants by factor XIa/Ca2+ (SDS gel). Particulars: analyzed by SDS gel electrophoresis. It is filed as biochemical. As for the experimental part: The rates of activation of the protease domain factor IX mutants by VIIa/TF and by Factor Xla/Ca^2+ was also determined, under conditions described in Mathur et al., 1997, supra, either by VIIa/TF/Ca^2+ or by factor Xla/Ca^2+. The rates of the mutants were similar to that of IXNP as analyzed by SDS gel electrophoresis.
Various DEGR-ck-inhibited factor IXa proteins were prepared for these experiments as follows. IXNP, IXWT, and each mutant factor IX at 200 μg/ml was activated by factor XIa (2 μg/ml) for 90 min. in TBS, pH 7.4 (0.05 M Tris, 0.15 M NaCl, pH 7.4) containing 5 mM Ca^2+. […] DEGR-IXaNP, DEGR-IXaWT, and various DEGR-IXa mutant proteins were prepared as described in Mathur et al., 1997, supra, and free DEGR-ck was removed as described in Sabharwal et al., 1995, supra and Krishnaswamy, 1992, J. Biol. Chem. 267, 23696–23706.

In assay [2] the test system is Factor IX deficient plasma. In words: coagulant activity of XIa-activated IXa proteins. It is filed as biochemical.
In assay [3] the target is T2, factor X (Homo sapiens, UniProt P00742). In words: factor X activation in complete intrinsic Tenase system (IXa, Ca2+, phospholipid, VIIIa). Particulars: 70 pM VIIIa, 0.5 nM IXa, 15 nM X, phospholipid present. It is filed as biochemical. Set-up: Normal human plasma factor IX (IXNP) and factor X were isolated as described in Bajaj and Birktoft; from tissue; host or cells: human plasma (factor X); factor VIII obtained from Dr. Leon Hoyer, American Red Cross. Here is the method: (§1) The ability of each activated mutant to activate factor X in the presence and absence of phospholipid and factor VIIIa was determined as follows. The activation was carried out at 37° C. in a 50 μl reaction volume, in TBS/BSA pH 7.4, for various time periods. At the end of the incubation time period, each reaction mixture received 1 μl of 0.5 M EDTA to stop further generation of factor Xa. A 40 μL aliquot was then added to 0.1 ml quartz cuvette containing S-2222 in 75 μL of TBS/BSA, pH 7.4. The final concentration of S-2222 was 100 μM. The p-nitroaniline release was measured continuously (ΔA405/min) for up to 20 min (Sabharwal et al., 1995 supra; Sabharwal et al., 1997, supra). Factor Xa generated was calculated from a standard curve constructed using factor Xa prepared from insolubilized Russell's viper venom.
(§2) Factor X activation measurements were made under four experimental regimes. In one, Ca^2+ and phospholipid were present. In this system activation was carried out for 5–15 minutes and the concentration of each IXa protein was 20 nM, phospholipid was 25 μM, and factor X was 100 nM. In the second regime, Ca^2+, phospholipid and factor VIIIa were present. […] In the third regime, only Ca^2+ was present. Here, activation was carried out for 2–20 min and concentration of each IXa protein was 400 nM and factor X was 1 μM. Finally, in the fourth regime, Ca^2+ and VIIIa were present. Here, activation was carried out for 15–120 sec and the concentration of each IXa protein was 2 μM, VIIIa was 14 nM, and factor X was 400 nM.
(§3) In all of the above factor X activation experiments, the incubation times chosen were those in which the factor Xa generated was always less than 10 nM. This precautionary measure was taken to prevent activation of factor X by the generated factor Xa (see, e.g., Link. and Castellino, 1982, Arch Biochem. Biophys. 215, 215–221). Further, in those incubation mixtures which contained […], control experiments were also performed in which factor VIIIa was omitted. […] In the presence of factor VIIIa, 10 μM phospholipid was used based upon previous observations (Mathur et al., 1997, supra; van Dieijen et al., 1981, J. Biol. Chem. 256, 3433–3442). The concentrations of factor X selected for each set of reaction conditions are those which are below or at the Km values (van Dieijen et al., supra; Fay and Koshibu, 1998, J Biol. Chem. 273, 19049–19054). In this region of the Michaelis-Menton curve, the rate of formation of factor Xa is proportional to the substrate factor X and therefore to the affinity of the factor IXa enzyme for factor X.
Next, the activation of factor X in a complete intrinsic Tenase system (IXa, Ca^2+, phospholipid, VIIIa) was studied.
Target sequence in this assay (P00742 183-488 limits assumed, one chain of several): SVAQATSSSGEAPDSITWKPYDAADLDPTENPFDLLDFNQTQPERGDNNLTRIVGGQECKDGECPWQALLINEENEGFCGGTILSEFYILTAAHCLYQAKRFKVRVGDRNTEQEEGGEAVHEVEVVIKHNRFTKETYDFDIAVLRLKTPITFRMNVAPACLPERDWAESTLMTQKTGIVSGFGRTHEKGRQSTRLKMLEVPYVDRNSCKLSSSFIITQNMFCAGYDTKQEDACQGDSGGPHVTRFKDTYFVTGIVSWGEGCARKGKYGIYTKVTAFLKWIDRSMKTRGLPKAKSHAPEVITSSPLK
Target sequence in this assay (P00742 41-179 limits assumed, one chain of several): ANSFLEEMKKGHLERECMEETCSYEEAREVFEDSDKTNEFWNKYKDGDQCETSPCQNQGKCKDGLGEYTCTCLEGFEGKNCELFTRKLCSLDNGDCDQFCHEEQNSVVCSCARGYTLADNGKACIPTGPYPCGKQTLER

Assay [4] addresses T2, factor X. Nature of the assay: factor X activation by IXa proteins, Ca2+ and VIIIa, no phospholipid. The assay is classed as biochemical. Set-up: Normal human plasma factor IX (IXNP) and factor X were isolated as described in Bajaj and Birktoft; from tissue; host or cells: human plasma (factor X); factor VIII obtained from Dr. Leon Hoyer, American Red Cross. Particulars: 14 nM VIIIa, 400 nM factor X. Here is the method:
as §1, §2, §3
Target sequence in this assay (P00742 183-488 limits assumed, one chain of several): as the sequence (P00742 183-488 limits assumed, one chain of several) above
Target sequence in this assay (P00742 41-179 limits assumed, one chain of several): as the sequence (P00742 41-179 limits assumed, one chain of several) above

Assay [5] has as its target T2, factor X. In words: factor X activation by IXa proteins, Ca2+ and phospholipid, without VIIIa. It is filed as biochemical. Set-up: Normal human plasma factor IX (IXNP) and factor X were isolated as described in Bajaj and Birktoft; from tissue; host or cells: human plasma. Particulars: no VIIIa, 20 nM IXa, 25 μM phospholipid, 100 nM X. Here is the method:
as §1
(§4) Factor X activation measurements were made under four experimental regimes. In one, Ca^2+ and phospholipid were present. In this system activation was carried out for 5–15 minutes and the concentration of each IXa protein was 20 nM, phospholipid was 25 μM, and factor X was 100 nM. In the second regime, Ca^2+, phospholipid and factor VIIIa were present. […] In the third regime, only Ca^2+ was present. Here, activation was carried out for 2–20 min and concentration of each IXa protein was 400 nM and factor X was 1 μM. Finally, in the fourth regime, Ca^2+ and VIIIa were present. […]
Target sequence in this assay (P00742 183-488 limits assumed): as the sequence (P00742 183-488 limits assumed, one chain of several) above
Target sequence in this assay (P00742 41-179 limits assumed): as the sequence (P00742 41-179 limits assumed, one chain of several) above

For assay [6], the target named is T2, factor X. Nature of the assay: factor X activation by IXa proteins, Ca2+ only. It is filed as biochemical. Also on record: Normal human plasma factor IX (IXNP) and factor X were isolated as described in Bajaj and Birktoft; from tissue; host or cells: human plasma. Particulars: 1 μM X, 400 nM IXa, no phospholipid, no VIIIa. Here is the method: as §1, §4
Target sequence in this assay (P00742 183-488 limits assumed): as the sequence (P00742 183-488 limits assumed, one chain of several) above
Target sequence in this assay (P00742 41-179 limits assumed): as the sequence (P00742 41-179 limits assumed, one chain of several) above
In assay [7] the target is T3, factor VIIIa (Homo sapiens, UniProt P00451).
T3 construct: purchased Dr. Leon Hoyer (American Red Cross, Rockville, Md.)
T3 sequence (P00451 20-759 limits assumed): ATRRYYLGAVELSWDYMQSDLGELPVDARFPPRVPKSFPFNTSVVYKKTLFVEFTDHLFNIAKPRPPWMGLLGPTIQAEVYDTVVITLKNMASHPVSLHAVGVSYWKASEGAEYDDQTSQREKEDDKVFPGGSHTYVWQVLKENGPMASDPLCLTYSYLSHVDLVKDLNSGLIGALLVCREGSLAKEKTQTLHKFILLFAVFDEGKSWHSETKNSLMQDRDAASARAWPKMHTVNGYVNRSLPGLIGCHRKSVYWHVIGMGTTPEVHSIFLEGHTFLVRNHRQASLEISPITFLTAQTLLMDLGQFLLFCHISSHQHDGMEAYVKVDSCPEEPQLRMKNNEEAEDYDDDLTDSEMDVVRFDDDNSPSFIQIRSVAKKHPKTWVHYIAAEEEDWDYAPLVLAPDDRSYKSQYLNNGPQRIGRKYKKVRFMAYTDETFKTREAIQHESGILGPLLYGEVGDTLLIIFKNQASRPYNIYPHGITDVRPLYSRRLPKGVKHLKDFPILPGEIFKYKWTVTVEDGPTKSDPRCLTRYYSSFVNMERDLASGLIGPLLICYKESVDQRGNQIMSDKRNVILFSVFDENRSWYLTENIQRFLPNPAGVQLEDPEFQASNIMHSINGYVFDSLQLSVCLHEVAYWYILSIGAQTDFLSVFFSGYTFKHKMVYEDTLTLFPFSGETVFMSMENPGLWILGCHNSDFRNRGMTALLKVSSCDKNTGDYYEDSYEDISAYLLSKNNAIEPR
T3 sequence (P00451 1668-2351 limits assumed): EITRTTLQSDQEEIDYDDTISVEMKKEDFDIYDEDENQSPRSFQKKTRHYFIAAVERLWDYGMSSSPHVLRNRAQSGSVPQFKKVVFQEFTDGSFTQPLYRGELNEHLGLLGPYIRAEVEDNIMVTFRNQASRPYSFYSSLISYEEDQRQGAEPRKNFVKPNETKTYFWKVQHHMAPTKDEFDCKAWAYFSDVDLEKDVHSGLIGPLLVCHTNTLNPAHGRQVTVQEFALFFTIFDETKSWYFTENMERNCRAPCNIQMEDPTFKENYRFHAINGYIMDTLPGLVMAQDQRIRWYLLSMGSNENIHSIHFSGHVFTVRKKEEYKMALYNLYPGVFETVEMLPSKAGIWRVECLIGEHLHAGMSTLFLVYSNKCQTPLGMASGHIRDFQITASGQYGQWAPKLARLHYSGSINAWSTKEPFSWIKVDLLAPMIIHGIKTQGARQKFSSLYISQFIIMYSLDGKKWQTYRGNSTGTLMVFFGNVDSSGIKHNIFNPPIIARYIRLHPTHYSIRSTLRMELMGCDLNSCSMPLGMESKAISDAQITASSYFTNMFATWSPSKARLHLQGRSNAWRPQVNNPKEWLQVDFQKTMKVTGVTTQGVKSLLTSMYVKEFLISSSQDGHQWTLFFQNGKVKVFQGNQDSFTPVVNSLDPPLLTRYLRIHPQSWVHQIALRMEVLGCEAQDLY
Nature of the assay: inhibition of Xa generation by active site-blocked (DEGR) IXa proteins, absence of phospholipid (Kd,app for VIIIa). It is filed as biochemical. Particulars: active site-blocked (DEGR) IXa proteins, no phospholipid. As for the experimental part: (§5) Apparent Kds of factor VIIIa binding to various active site-blocked factor IXa proteins were determined from inhibition experiments as detailed in Mathur et al., 1997, supra. […] Reactions were carried out for 2 min and the rates of factor X activation were measured as outlined above.
(§6) Various DEGR-ck-inhibited factor IXa proteins were prepared for these experiments as follows. IXNP, IXWT, and each mutant factor IX at 200 μg/ml was activated by factor XIa (2 μg/ml) for 90 min. in TBS, pH 7.4 (0.05 M Tris, 0.15 M NaCl, pH 7.4) containing 5 mM Ca^2+.
(§7) Enzymol. 74, 481–508 given below:
(§8) [formula] where y is the rate of Xa formation in the presence of a given concentration of DEGR-IXa protein represented by x, a is the maximum rate of Xa formation in the absence of DEGR-IXa, and s is the slope factor. Each point was weighted equally and the data were fitted to Equation 1 using the nonlinear regression analysis program obtained from Erithacus Software (GraFit). […] To obtain the Kd,app values for the interaction of DEGR-IXa proteins with factor VIIIa, the following equation was used, as described by Cheng and Prusoff, 1973, Biochem. Pharmacol. 22, 3099–3108 and further discussed by Craig, 1993, Trends Pharmacol. Sci. 6, 68–71.

The test system of assay [8] is factor VIIIa. Particulars: from other studies; cited from earlier work.
For assay [9] the following is noted: from other studies; cited from earlier work.
The target of assay [10] is T3, factor VIIIa. In words: inhibition of Xa generation by active site-blocked (DEGR) IXa proteins, presence of phospholipid (Kd,app for VIIIa). It is filed as biochemical. Particulars: active site-blocked (DEGR) IXa proteins, 10 μM phospholipid; read-out: Kd, app for interaction with factor VIIIa, PL-plus system. Here is the method:
as §5, §6, §7, §8

Consider “IXQ50P: factor IX mutant that lacks the EGF1 domain Ca2+ binding site”, for which the Kd in assay [1] was approximately 15 nM. The “rate of activation by factor XIa/Ca2+” value with factor XIa/Ca2+ is reported as “readily activated”.

“IXaT335A: activated factor IX mutant T335A”: the “coagulant activity as compared to IXaNP” value in assay [2] is on record as approximately 35%. The “X-activation rate, PL-plus system” value is recorded as 1.92 ± 0.11 nM/min with factor X [3] and approximately 1.9 nM/min in the assay with factor X [3] (listed as IXaI335A). Moreover, the “X-activation rate, PL-minus system” value with factor X [4] was 1.83 ± 0.18 nM/min.

With “IXaQ50P: activated EGF1 domain mutant Q50P of factor IX”, the “rate of factor Xa generation” value in the assay with factor X [5] amounted to 0.07 nM/min. In addition, the “rate of factor X activation, Ca2+ only” value with factor X [6] is on record as approximately 0.39 nM/min. Moreover, the “Kd, app for interaction with factor VIIIa, PL-minus system” value with factor VIIIa [7] is recorded as “indistinguishable from that of normal IXa”.

On to “IXaL330I: activated factor IX mutant L330I”, for which the “coagulant activity as compared to IXaNP” value in assay [2] is on record as approximately 7%. Besides, the “X-activation rate, PL-plus system” value with factor X [3] was determined as 0.95 ± 0.07 nM/min. Further, in the assay with factor X [4], the “X-activation rate, PL-minus system” value is on record as 0.94 ± 0.03 nM/min.

Regarding “R338A: factor IX R338A mutant described by Chang and coworkers [Protein R338A]”, the “factor VIIIa binding / affinity of variant” value in the assay on factor VIIIa [8] is “without an impairment in factor VIIIa binding”. Moreover, the activity of variant entry in assay [9] is reported as “slightly increased activity”.

For the substance “IXPCEGF1: factor IX in which EGF1 residues 52–85 are replaced by residues 51–92 of protein C”, the “rate of activation by factor XIa/Ca2+” value with factor XIa/Ca2+ is given as “readily activated”.

For the substance “IXaPCEGF1: activated factor IX with EGF1 domain replaced by that of protein C”, the Kd in the assay with factor VIIIa [10] amounted to 5.71 ± 0.82 nM; with factor VIIIa [7] (read-out: Kd, app for interaction with factor VIIIa, PL-minus system), 210 ± 10 nM. For the same substance, the “rate of factor Xa generation” value in the assay with factor X [5] came out at 0.06 nM/min. Further, in the assay with factor X [6], the “rate of factor X activation, Ca2+ only” value is listed as approximately 0.48 nM/min. In addition, the “Kd, app for interaction with factor VIIIa, PL-minus system” value with factor VIIIa [7] is on record as “indistinguishable from that of normal IXa”.
